# The RNAGym collection of RNA variant scans (doi:10.7554/elife.80360)
# B1: HDV Ribozyme (parent)
# chain: GGCCGGCAUGGUCCCAGCCUCCUCGCUGGCGCCGGCUGGGCAACAUUCCGAGGGGACCGUCCCCUCGGUAAUGGCGAAUGGGACCCA
# Variants of: B1
# Assay: self-cleavage, relative activity (ratio to wild type); higher = more cleavage; co-transcriptional
row,Variant,self-cleavage
1,C32U U46G,0.646
2,C32U U46C,0.554
3,C32A U69A,0.0652
4,C32A U69G,0.271
5,C32U G82A,0.354
6,C32U G82C,0.253
7,C32U G54C,0.992
8,C32U G54U,0.923
9,C32A C84G,0.111
10,G31U G76A,0.369
11,C32U C44A,0.243
12,C32G C66A,0.113
13,C32G C66G,0.0583
14,C32U C58A,1
15,C32G C61U,0.026
16,C32G C61G,0.0604
17,C32G C61A,0.121
18,C32A G73U,0.0959
19,C32A G73C,0.0906
20,C32A G73A,0.138
21,C32A A83U,0
22,C32U G59A,0.963
23,C32U G59U,0.795
24,C32U C48U,0.69

row,Variant,self-cleavage
1,C32G G50C,0.262
2,C32G G50A,0.157
3,G31U G82A,0.185
4,G31U G82U,0.0378
5,C32G A71C,0
6,C32G A71G,0.0415
7,C33A C63G,0.283
8,C33A C63U,0.503
9,C32G U47C,0.0852
10,C32G G55A,0.0841
11,C32G G55C,0.136
12,C32G G55U,0.0911
13,C32U C64U,0.831
14,G31U G67C,0.245
15,C32U G40U,0.758
16,C32A G40C,0.134
17,C32A G40U,0.22
18,C32A G68A,0.185
19,G31U U72G,0.128
20,G31U U72A,0.141
21,G31U U46C,0.306
22,C32U G81A,0.158
23,C32U G81U,0.185
24,C33A C85G,0.309

row,Variant,self-cleavage
1,C32U C62U,1.13
2,C32U C62A,0.906
3,C33A A83G,0.144
4,C32A A87C,0.129
5,C32A G53U,0.214
6,C32A G53C,0.0923
7,C32U A70G,0.85
8,C32U A70U,0.892
9,C32U A70C,0.68
10,C32G U79C,0.0205
11,C32U C63U,0.817
12,C32U C63A,0.701
13,C32G G82U,0.228
14,C32G G82A,0.0997
15,G31U U60C,0.639
16,G31U U60A,0.379
17,G31U U60G,0.212
18,C32G C44U,0.0665
19,C32G C44A,0.0791
20,C32A G55U,0.219
21,C32A G55C,0.133
22,C32A G55A,0.145
23,C33A C84A,0.0811
24,C33A C84U,0.193

row,Variant,self-cleavage
1,C32G G68A,0.185
2,C32G G68U,0.089
3,C32G U65G,0.119
4,C33A C64A,0.339
5,C33A C64U,0.086
6,C33A C64G,0.289
7,C32A U65A,0.309
8,C32A U65C,0
9,C32A G34C,0.208
10,C32A G34A,0.032
11,C32A G34U,0.0791
12,C32U A87U,1.03
13,C32U A87G,0.787
14,C32U G53C,0.846
15,C32U G53U,0.811
16,C32G G59U,0.0519
17,C32G G59A,0.0489
18,C32G A87G,0.0665
19,C32G A87C,0.0545
20,C32G A87U,0.135
21,C33A,0.29
22,C32U A56C,1.12
23,C32U C36G,0.0923
24,C32U G50C,0.764

row,Variant,self-cleavage
1,C32U A71C,0.665
2,G31U U37A,0.172
3,G31U U37C,0.415
4,C32G C84G,0.0594
5,C32U C84U,0.763
6,C32U C84G,0.399
7,C32A A71G,0.128
8,G31U G80U,0.0675
9,G31U G80A,0.0519
10,C32A C48A,0.116
11,G31U C86G,0.451
12,G31U C86A,0.394
13,C32U G67U,0.88
14,G31U G54C,0.197
15,G31U G54A,0.403
16,G31U G54U,0.369
17,C32G C63A,0
18,C32U U69A,1.13
19,C32G C57G,0.225
20,C32U C86U,0.686
21,C32U A51C,0.541
22,C32U A51G,0.92
23,C32U G74A,0.459
24,G31U G74A,0.151

row,Variant,self-cleavage
1,C32A C86A,0.356
2,C32U A43C,0.196
3,C32A C33G,0.0405
4,C32A C33A,0.129
5,C32A C75U,0.0791
6,C32A C75G,0.285
7,C32G G80U,0.0831
8,C32A U37A,0.0627
9,C32A U37G,0.166
10,C32A A77C,0.219
11,C32G C36U,0.111
12,C32A G80C,0.161
13,C32A G80U,0.0472
14,C32A G80A,0.183
15,C32G U72G,0.0519
16,C32A G76U,0.302
17,C32A G76C,0.192
18,C32A G76A,0.214
19,G31U G55A,0.506
20,G31U G55U,0.324
21,C33A A45C,0.133
22,C33A A45U,0.232
23,C32G C62G,0.277
24,C32G C62U,0.117

row,Variant,self-cleavage
1,C32G C62A,0.148
2,C32U A42C,0.233
3,C32A C85A,0.341
4,C32A C85G,0.252
5,C32A U46A,0.185
6,C32G G39A,0.157
7,C32A G81C,0.0475
8,C32A G81A,0.0779
9,C32A G81U,0.136
10,C32U C41G,0.429
11,C32U C41U,0.629
12,C32A A45U,0.151
13,C32A A45G,0.198
14,C32G A70G,0.0554
15,C32G A70U,0.032
16,G31U G68A,0.38
17,G31U G68U,0.427
18,G31U G68C,0.344
19,C32A C41G,0
20,C32A C41A,0.089
21,C32A A51C,0.244
22,C32A A51G,0.162
23,G31U U47A,0.406
24,C32A G54A,0.212

row,Variant,self-cleavage
1,C32A G54C,0.356
2,C32A U72G,0.178
3,C32A U72A,0.156
4,C32A U72C,0.133
5,C32G A42C,0.0678
6,C33A C61G,0.237
7,C33A C61U,0.265
8,C32A G50U,0.178
9,C32U G35A,0.326
10,G31U U79A,0.148
11,G31U U79G,0.147
12,C33A C49A,0.364
13,C33A C49U,0.212
14,C33A A77C,0.0707
15,C33A A77U,0.0923
16,C33A A77G,0.104
17,C32A G39C,0.166
18,C32A G39U,0.237
19,G31U U65G,0.383
20,G31U U65A,0.318
21,C32G C33G,0.0906
22,C32G C33A,0.0615
23,C32U C66G,0.739
24,C32U C66A,0.991

row,Variant,self-cleavage
1,C32G G35A,0.154
2,C32A G82U,0.104
3,C32A U60G,0.138
4,C32U C85G,0.831
5,C32U C85A,0.849
6,C32U G39A,0.192
7,C33A A43U,0.163
8,C32G C49A,0
9,G31U G35U,0.0443
10,C32U A77G,0.73
11,C32U U60C,0.7
12,C32U U79C,0.201
13,C32G C48U,0.0449
14,C32A C57G,0.389
15,C32A C57A,0.295
16,C32A C57U,0.318
17,C32U C75U,0.315
18,C32A U47G,0.246
19,C32A U47A,0.322
20,G31U G81A,0.162
21,G31U G81C,0.208
22,C32G G74U,0.125
23,C32G G74C,0.166
24,C32G G74A,0.126

row,Variant,self-cleavage
1,C33A A51G,0.289
2,C32A A42U,0.166
3,C32A G35A,0.122
4,C32G G81C,0.0773
5,C32G G81A,0.0297
6,C33A C48A,0.314
7,C32G G40C,0.0755
8,C32G G40A,0.0831
9,G31U G59A,0.546
10,G31U G59U,0.617
11,C32U U72A,0.692
12,C32U U72G,0.494
13,C32A A43G,0.119
14,C32A A43U,0.108
15,C32A A43C,0.162
16,C32G A51U,0.128
17,C32G U60A,0.131
18,C32G A56C,0.0739
19,C32G A56G,0.0852
20,G31U C85A,0.288
21,G31U C85U,0.441
22,C32U A83U,0.456
23,C32U G68A,0.888
24,C32U G68U,0.776

row,Variant,self-cleavage
1,C33A A78G,0.161
2,C32A C66G,0.213
3,C32A C66A,0.181
4,C33A C57U,0.46
5,C32G U69G,0.0504
6,C32G U69A,0.148
7,C32G U69C,0.0639
8,C32A G67C,0.154
9,C32A G67A,0.211
10,C32U G80A,0.256
11,C32U G80C,0.132
12,C32U G38A,0.216
13,C32G U37A,0.293
14,C32A A56C,0.293
15,C32A A56G,0.252
16,C32A G74A,0.148
17,C32G A78G,0.0536
18,C32G A78C,0.0665
19,C32G A78U,0.0811
20,C33A C75G,0.145
21,G31U G50A,0.674
22,G31U G73C,0
23,G31U G73A,0.0627
24,G31U G73U,0.171

row,Variant,self-cleavage
1,C32A A78C,0.0665
2,C32A A78G,0.113
3,G31U G52A,0.431
4,G31U G34U,0.0791
5,C32A C63A,0.232
6,C32A C63G,0.095
7,C33A C44U,0.0707
8,C32G A45C,0.0707
9,C32G A83G,0
10,C32G A83C,0.0346
11,C32G A77G,0.0475
12,C32G A77U,0.123
13,C32G A77C,0.0536
14,C32G G67A,0.16
15,C32G G67U,0.0831
16,C32G G38C,0.0462
17,C32U C33U,0.166
18,C32U C33A,0.161
19,C32U C33G,0.117
20,C32U G55U,0.935
21,C32U G55C,0.866
22,C32U C61A,0.841
23,C32U C61U,0.817
24,G31U G39U,0.285

row,Variant,self-cleavage
1,C32G C58A,0.189
2,C32U U65G,0.956
3,C32U U65A,1.08
4,C32U U65C,0.91
5,G31U G40C,0.0519
6,C32G G73C,0.12
7,C32A G38C,0.0817
8,C32A G38A,0.0665
9,C32G U46A,0.0332
10,C33A A42G,0
11,C33A C36U,0.0396
12,C33A C36G,0.208
13,C33A A71U,0.0282
14,C33A A71G,0.289
15,C33A A56C,0.339
16,C33A A56U,0.475
17,C33A A56G,0.324
18,C32G G76U,0.122
19,C32G G76C,0.224
20,C32U A45U,0.631
21,C32U A45C,0.291
22,C32U A45G,0.755
23,C32U C49U,0.803
24,C32A A70C,0.101

row,Variant,self-cleavage
1,C32A G59U,0.095
2,C32U U37A,0.252
3,C32A C58A,0.208
4,C32A C58G,0
5,C32A C58U,0.208
6,C32G G54A,0.0898
7,C32G G54C,0.086
8,C32G C86G,0.119
9,C32G C86A,0.18
10,C32A C62A,0.151
11,G31U U69G,0.386
12,G31U U69C,0.396
13,C32G C41U,0.119
14,C32U G73C,0.261
15,C32U G73U,0.267
16,C32G G53U,0.196
17,C32G G53C,0.213
18,C32U A78C,0.177
19,C32U A78U,0.178
20,G31U G53U,0.322
21,G31U G53A,0.289
22,C32G C64U,0.109
